Data from paper PMC6851183, “Computational design and characterization of nanobody-derived peptides that stabilize the active conformation of the β2-adrenergic receptor (β2-AR)” (Scientific Reports, 2019).

How the values were obtained:
[1] = target: T1, C-terminal GFP2-tagged β2-adrenergic receptor (β2-AR/GFP2) (human, UniProt P07550 1-413); assay: MST; lysate of HEK-293 cells with β2-AR/GFP2 kept constant as fluorescent target, P3 titrated in 1:1 dilutions, no agonist; MST buffer with 0.05% Tween 20, 25 °C; EC50 from bound fraction; conditions: one partner purified
T1 construct: human β2-adrenergic receptor; not shown: GFP2, C-terminal, kept

[2] = target: T1, C-terminal GFP2-tagged β2-adrenergic …; assay: MST; lysate of HEK-293 cells with β2-AR/GFP2 kept constant as fluorescent target, P3 titrated in 1:1 dilutions, in the presence of 10 µM isoproterenol; MST buffer with 0.05% Tween 20, 25 °C; EC50 from bound fraction; conditions: one partner purified

B1: P3, nanobody-derived peptide (NDP) of Nb71 (peptide)
peptide: EDTAVYYCNANWDLLSD
notes: 17 aa stretch of the nanobody Nb71 (amino acid residues 88-104, includes CDR3), picked by computational peptide scanning; numbers count on Nb71; source: synthetic peptide, custom-synthesized at Biomatik Corporation
EC50 [1]: 58.2 ± 13.6 µM
EC50 [2]: 3.57 ± 0.81 µM
